# T1: FcγRIIa R type extracellular domain with C-terminal His tag (human, UniProt P12318 34-217)
# T1 construct: extracellular domain; also called FcgRIIaR; not shown: His tag at the C terminus
# T1 sequence (looked up): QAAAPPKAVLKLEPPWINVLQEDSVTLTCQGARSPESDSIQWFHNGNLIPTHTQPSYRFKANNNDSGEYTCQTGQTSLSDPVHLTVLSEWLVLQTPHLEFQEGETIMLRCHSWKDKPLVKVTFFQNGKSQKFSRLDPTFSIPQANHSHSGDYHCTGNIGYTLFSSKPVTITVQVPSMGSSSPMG
# T2: FcγRIIb extracellular domain with C-terminal His tag (human, UniProt P31994 43-217)
# T2 construct: extracellular domain; also called FcgRIIb; not shown: His tag at the C terminus
# T2 sequence (looked up): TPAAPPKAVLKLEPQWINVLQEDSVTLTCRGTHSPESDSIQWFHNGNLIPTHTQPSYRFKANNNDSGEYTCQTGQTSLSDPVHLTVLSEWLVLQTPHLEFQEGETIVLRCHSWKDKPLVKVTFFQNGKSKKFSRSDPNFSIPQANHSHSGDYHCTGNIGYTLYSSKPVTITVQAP
# T3: FcgRIIaR (human, UniProt P12318 34-217)
# T3 construct: extracellular domain; also called FcγRIIa R type; FcγRIIa (R type)
# T3 sequence (looked up): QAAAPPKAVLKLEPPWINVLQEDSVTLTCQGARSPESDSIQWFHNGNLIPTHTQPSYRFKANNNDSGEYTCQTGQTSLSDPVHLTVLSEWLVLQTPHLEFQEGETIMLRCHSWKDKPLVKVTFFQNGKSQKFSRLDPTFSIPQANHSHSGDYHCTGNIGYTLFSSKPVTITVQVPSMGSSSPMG
# T4: FcgRIIb (human, UniProt P31994 43-217)
# T4 construct: extracellular domain; also called FcγRIIb
# T4 sequence (looked up): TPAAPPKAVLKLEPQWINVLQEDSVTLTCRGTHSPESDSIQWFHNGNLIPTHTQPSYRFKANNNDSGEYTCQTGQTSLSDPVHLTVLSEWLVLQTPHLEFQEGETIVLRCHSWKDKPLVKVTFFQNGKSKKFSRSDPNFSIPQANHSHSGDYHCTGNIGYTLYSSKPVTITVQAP
# Experiments:
# [1] = biological target: T5, FcγRIa extracellular domain with C-terminal His tag (human, UniProt P12314 16-292); experiment: SPR, antibody captured, FcgR analyte
# T5 construct: also called FcgRIa; CD64; not shown: His tag at the C terminus
# [2] = biological target: T1, FcγRIIa R type extracellular domain …; experiment: SPR, antibody captured, FcgR analyte
# [3] = biological target: T2, FcγRIIb extracellular domain with …; experiment: SPR, antibody captured, FcgR analyte
# [4] = biological target: T1, FcγRIIa R type extracellular domain …; experiment: SPR; KD of IL6R-B3/IL6R-L divided by KD of variant
# [5] = biological target: T2, FcγRIIb extracellular domain with …; experiment: SPR; KD of IL6R-B3/IL6R-L divided by KD of variant
# FcgRIIaR = biological target: T3, FcgRIIaR; experiment: SPR, amount bound per captured antibody
# FcgRIIb = biological target: T4, FcgRIIb; experiment: SPR, amount bound per captured antibody
# T5 sequence (P12314 16-292): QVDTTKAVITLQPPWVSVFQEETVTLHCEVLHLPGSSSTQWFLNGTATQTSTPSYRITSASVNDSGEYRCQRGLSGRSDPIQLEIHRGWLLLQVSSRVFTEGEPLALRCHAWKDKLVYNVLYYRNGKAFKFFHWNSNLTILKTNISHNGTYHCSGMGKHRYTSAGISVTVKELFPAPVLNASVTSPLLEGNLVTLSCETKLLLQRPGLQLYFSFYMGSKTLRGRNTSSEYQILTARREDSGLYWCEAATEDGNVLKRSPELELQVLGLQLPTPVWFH
Binder,Relative FcgRIIaR-binding Activity (FcgRIIaR) [IL6R-G1d/IL6R-L=100],Relative FcgRIIb-binding Activity (FcgRIIb) [IL6R-G1d/IL6R-L=100],other results
"IL6R-BP262/IL6R-L (antibody, human IgG1, kappa, name in EU numbering, human IgG1) heavy: QVQLQESGPGLVKPSETLSLTCAVSGHSISHDHAWSWVRQPPGEGLEWIGFISYSGITNYNPSLQGRVTISRDNSKNTLYLQMNSLRAEDTAVYYCARSLARTTAMDYWGEGTLVTVSSASTKGPSVFPLAPSSKSTSGGTAALGCLVKDYFPEPVTVSWNSGALTSGVHTFPAVLQSSGLYSLSSVVTVPSSSLGTQTYICNVNHKPSNTKVDKKVEPKSCDKTHTCPPCPAPELLGDDSVFLFPPKPKDTLMISRTPEVTCVVVDVSEEDGEVKFNWYVDGVEVHNAKTKPREEQYNSTYRVVSVLTVLHQDWLNGKEYKCKVSNKALPAPIEKTISKAKGQPREPQVYTLPPSRDELTKNQVSLTCLVKGFYPSDIAVEWESNGQPENNYKTTPPVLDSDGSFFLYSKLTVDKSRWQQGNVFSCSVMHEALHNHYTQESLSLSP light: not shown",,,Kd [1]: 10 nM; Kd [2]: 2000 nM; Kd [3]: 120 nM; Relative FcgRIIaR-binding Activity [4]: 0.5; Relative FcgRIIb-binding Activity [5]: 25.8
"IL6R-P648/IL6R-L (antibody, human IgG1, kappa) heavy: QVQLQESGPGLVKPSETLSLTCAVSGHSISHDHAWSWVRQPPGEGLEWIGFISYSGITNYNPSLQGRVTISRDNSKNTLYLQMNSLRAEDTAVYYCARSLARTTAMDYWGEGTLVTVSSASTKGPSVFPLAPSSKSTSGGTAALGCLVKDYFPEPVTVSWNSGALTSGVHTFPAVLQSSGLYSLSSVVTVPSSSLGTQTYICNVNHKPSNTKVDKKVEPKSCDKTHTCPPCPAPDLLGDDSVFLFPPKPKDTLMISRTPEVTCVVISVAEEDGEVKFNWYVDGVEVHNAKTKPREEQDNSTYRVVSVLTVLHQDWLNGKEYKCKVSNKALPRPIEKTISKAKGQPREPQVYTLPPSRDELTKNQVSLTCLVKGFYPSDIAVEWESNGQPENNYKTTPMVLDSDGSFFLYSKLTVDKSRWQQGNVFSCSVMHEALHNHYTQKSLSLSP light: not shown",40.3,152,
"IL6R-P649/IL6R-L (antibody, human IgG1, kappa) heavy: QVQLQESGPGLVKPSETLSLTCAVSGHSISHDHAWSWVRQPPGEGLEWIGFISYSGITNYNPSLQGRVTISRDNSKNTLYLQMNSLRAEDTAVYYCARSLARTTAMDYWGEGTLVTVSSASTKGPSVFPLAPSSKSTSGGTAALGCLVKDYFPEPVTVSWNSGALTSGVHTFPAVLQSSGLYSLSSVVTVPSSSLGTQTYICNVNHKPSNTKVDKKVEPKSCDKTHTCPPCPAPDLLGDDSVFLFPPKPKDTLMISRTPEVTCVVIVVAEEDGEVKFNWYVDGVEVHNAKTKPREEQDNSTYRVVSVLTVLHQDWLNGKEYKCKVSNKALPRPIEKTISKAKGQPREPQVYTLPPSRDELTKNQVSLTCLVKGFYPSDIAVEWESNGQPENNYKTTPMVLDSDGSFFLYSKLTVDKSRWQQGNVFSCSVMHEALHNHYTQKSLSLSP light: not shown",2.9,6.9,
"IL6R-P650/IL6R-L (antibody, human IgG1, kappa) heavy: QVQLQESGPGLVKPSETLSLTCAVSGHSISHDHAWSWVRQPPGEGLEWIGFISYSGITNYNPSLQGRVTISRDNSKNTLYLQMNSLRAEDTAVYYCARSLARTTAMDYWGEGTLVTVSSASTKGPSVFPLAPSSKSTSGGTAALGCLVKDYFPEPVTVSWNSGALTSGVHTFPAVLQSSGLYSLSSVVTVPSSSLGTQTYICNVNHKPSNTKVDKKVEPKSCDKTHTCPPCPAPDLLGDDSVFLFPPKPKDTLMISRTPEVTCVVIDVKEEDGEVKFNWYVDGVEVHNAKTKPREEQDNSTYRVVSVLTVLHQDWLNGKEYKCKVSNKALPRPIEKTISKAKGQPREPQVYTLPPSRDELTKNQVSLTCLVKGFYPSDIAVEWESNGQPENNYKTTPMVLDSDGSFFLYSKLTVDKSRWQQGNVFSCSVMHEALHNHYTQKSLSLSP light: not shown",41.6,155,
"IL6R-P651/IL6R-L (antibody, human IgG1, kappa) heavy: QVQLQESGPGLVKPSETLSLTCAVSGHSISHDHAWSWVRQPPGEGLEWIGFISYSGITNYNPSLQGRVTISRDNSKNTLYLQMNSLRAEDTAVYYCARSLARTTAMDYWGEGTLVTVSSASTKGPSVFPLAPSSKSTSGGTAALGCLVKDYFPEPVTVSWNSGALTSGVHTFPAVLQSSGLYSLSSVVTVPSSSLGTQTYICNVNHKPSNTKVDKKVEPKSCDKTHTCPPCPAPDLLGDDSVFLFPPKPKDTLMISRTPEVTCVVIDVREEDGEVKFNWYVDGVEVHNAKTKPREEQDNSTYRVVSVLTVLHQDWLNGKEYKCKVSNKALPRPIEKTISKAKGQPREPQVYTLPPSRDELTKNQVSLTCLVKGFYPSDIAVEWESNGQPENNYKTTPMVLDSDGSFFLYSKLTVDKSRWQQGNVFSCSVMHEALHNHYTQKSLSLSP light: not shown",75.7,168,
"IL6R-P664/IL6R-L (antibody, human IgG1, kappa, N297A) heavy: QVQLQESGPGLVKPSETLSLTCAVSGHSISHDHAWSWVRQPPGEGLEWIGFISYSGITNYNPSLQGRVTISRDNSKNTLYLQMNSLRAEDTAVYYCARSLARTTAMDYWGEGTLVTVSSASTKGPSVFPLAPSSKSTSGGTAALGCLVKDYFPEPVTVSWNSGALTSGVHTFPAVLQSSGLYSLSSVVTVPSSSLGTQTYICNVNHKPSNTKVDKKVEPKSCDKTHTCPPCPAPDLLGGDSVFLFPPKPKDTLMISRTPEVTCVVIDVAEEDGEVKFNWYVDGVEVHNAKTKPREEQYASTYRVVSVLTVLHQDWLNGKEYKCKVSNKALPAPIEKTISKAKGQPREPQVYTLPPSRDELTKNQVSLTCLVKGFYPSDIAVEWESNGQPENNYKTTPPVLDSDGSFFLYSKLTVDKSRWQQGNVFSCSVMHEALHNHYTQKSLSLSP light: not shown",10.8,33.9,

# Further lines, with some results ahead:
Relative FcgRIIaR-binding Activity (FcgRIIaR) [IL6R-G1d/IL6R-L=100],Relative FcgRIIb-binding Activity (FcgRIIb) [IL6R-G1d/IL6R-L=100],Binder,other results
6.1,73.7,"IL6R-P696/IL6R-L (antibody, human IgG1, kappa) heavy: QVQLQESGPGLVKPSETLSLTCAVSGHSISHDHAWSWVRQPPGEGLEWIGFISYSGITNYNPSLQGRVTISRDNSKNTLYLQMNSLRAEDTAVYYCARSLARTTAMDYWGEGTLVTVSSASTKGPSVFPLAPSSKSTSGGTAALGCLVKDYFPEPVTVSWNSGALTSGVHTFPAVLQSSGLYSLSSVVTVPSSSLGTQTYICNVNHKPSNTKVDKKVEPKSCDKTHTCPPCPAPDLLGRDSVFLFPPKPKDTLMISRTPEVTCVVIDVREEDGEVKFNWYVDGVEVHNAKTKPREEQYNSTYRVVSVLTVLHQDWLNGKEYKCKVSNKALPAPIEKTISKAKGQPREPQVYTLPPSRDELTKNQVSLTCLVKGFYPSDIAVEWESNGQPENNYKTTPPVLDSDGSFFLYSKLTVDKSRWQQGNVFSCSVMHEALHNHYTQKSLSLSP light: not shown",
3.6,28.7,"IL6R-P697/IL6R-L (antibody, human IgG1, kappa) heavy: QVQLQESGPGLVKPSETLSLTCAVSGHSISHDHAWSWVRQPPGEGLEWIGFISYSGITNYNPSLQGRVTISRDNSKNTLYLQMNSLRAEDTAVYYCARSLARTTAMDYWGEGTLVTVSSASTKGPSVFPLAPSSKSTSGGTAALGCLVKDYFPEPVTVSWNSGALTSGVHTFPAVLQSSGLYSLSSVVTVPSSSLGTQTYICNVNHKPSNTKVDKKVEPKSCDKTHTCPPCPAPDLLGKDSVFLFPPKPKDTLMISRTPEVTCVVIDVREEDGEVKFNWYVDGVEVHNAKTKPREEQYNSTYRVVSVLTVLHQDWLNGKEYKCKVSNKALPAPIEKTISKAKGQPREPQVYTLPPSRDELTKNQVSLTCLVKGFYPSDIAVEWESNGQPENNYKTTPPVLDSDGSFFLYSKLTVDKSRWQQGNVFSCSVMHEALHNHYTQKSLSLSP light: not shown",
5.8,38.1,"IL6R-P700/IL6R-L (antibody, human IgG1, kappa) heavy: QVQLQESGPGLVKPSETLSLTCAVSGHSISHDHAWSWVRQPPGEGLEWIGFISYSGITNYNPSLQGRVTISRDNSKNTLYLQMNSLRAEDTAVYYCARSLARTTAMDYWGEGTLVTVSSASTKGPSVFPLAPSSKSTSGGTAALGCLVKDYFPEPVTVSWNSGALTSGVHTFPAVLQSSGLYSLSSVVTVPSSSLGTQTYICNVNHKPSNTKVDKKVEPKSCDKTHTCPPCPAPDALGGDSVFLFPPKPKDTLMISRTPEVTCVVIDVREEDGEVKFNWYVDGVEVHNAKTKPREEQYNSTYRVVSVLTVLHQDWLNGKEYKCKVSNKALPAPIEKTISKAKGQPREPQVYTLPPSRDELTKNQVSLTCLVKGFYPSDIAVEWESNGQPENNYKTTPPVLDSDGSFFLYSKLTVDKSRWQQGNVFSCSVMHEALHNHYTQKSLSLSP light: not shown",
7,47.6,"IL6R-P701/IL6R-L (antibody, human IgG1, kappa) heavy: QVQLQESGPGLVKPSETLSLTCAVSGHSISHDHAWSWVRQPPGEGLEWIGFISYSGITNYNPSLQGRVTISRDNSKNTLYLQMNSLRAEDTAVYYCARSLARTTAMDYWGEGTLVTVSSASTKGPSVFPLAPSSKSTSGGTAALGCLVKDYFPEPVTVSWNSGALTSGVHTFPAVLQSSGLYSLSSVVTVPSSSLGTQTYICNVNHKPSNTKVDKKVEPKSCDKTHTCPPCPAPDNLGGDSVFLFPPKPKDTLMISRTPEVTCVVIDVREEDGEVKFNWYVDGVEVHNAKTKPREEQYNSTYRVVSVLTVLHQDWLNGKEYKCKVSNKALPAPIEKTISKAKGQPREPQVYTLPPSRDELTKNQVSLTCLVKGFYPSDIAVEWESNGQPENNYKTTPPVLDSDGSFFLYSKLTVDKSRWQQGNVFSCSVMHEALHNHYTQKSLSLSP light: not shown",

# Reference: patent US20220411483A1 (Chugai, published 2022)
